Test results from patent US20120045438A1 (Janssen / Centocor, published 2012).

Biological target: T1, human IL-13 R130Q variant (R110Q of the mature chain) (human, UniProt P35225 35-146, Biotinylated on amines (NHS-LC-biotin, 4:1) in ELISA, panning and competition assays. The letters are unchanged.)
T1 construct: R130Q counts from Met 1 of the signal peptide, R110Q on the mature chain; Bought from Peprotech; also called IL-13 R110Q; b-R130Q
Assay: single-point (10 nM) phage Fab ELISA on biotinylated IL-13 R130Q

Binder	% of Lc16Hc7
Phage # 54 Fab (IL-13-142 library) (Fab, V domains shown, Fab on phage pIX) VH: QVTLKESGPVLVKPTETLTLTCTVSGFSLSTYGMGVGWIRQPPGKALEWLAHIWWDDVKRYNPALKSRLTISKDTSKSQVVLTMTNMDPVDTATYYCARMGSDYDVWFDYWGQGTLVTVSS VL: DIQMTQSPSTLSASVGDRVTITCRASKSISKYLAWYQQKPGKAPKLLIYSGSTLQSGVPSRFSGSGSGTEFTLTISSLQPDDFATYYCQQHDWGPYTFGGGTKVEIK	361%
Phage # 13 Fab (IL-13-142 library) (Fab, V domains shown, Fab on phage pIX) VH: QVTLKESGPVLVKPTETLTLTCTVSGFSLSTYGMGVGWIRQPPGKALEWLAHIWWDDVKRYNPALKSRLTISKDTSKSQVVLTMTNMDPVDTATYYCARMGSDYDVWFDYWGQGTLVTVSS VL: DIQMTQSPSTLSASVGDRVTITCRASKSISKYLAWYQQKPGKAPKLLIYSGSTLQSGVPSRFSGSGSGTEFTLTISSLQPDDFATYYCQQHEWGPYTFGGGTKVEIK	196%
Phage # 27 Fab (IL-13-142 library) (Fab, V domains shown, Fab on phage pIX) VH: QVTLKESGPVLVKPTETLTLTCTVSGFSLSTYGMGVGWIRQPPGKALEWLAHIWWDDVKRYNPALKSRLTISKDTSKSQVVLTMTNMDPVDTATYYCARMGSDYDVWFDYWGQGTLVTVSS VL: DIQMTQSPSTLSASVGDRVTITCRASKSISKYLAWYQQKPGKAPKLLIYSGSTLQSGVPSRFSGSGSGTEFTLTISSLQPDDFATYYCQQHNDSPYTFGGGTKVEIK	238%
Phage # 15 Fab (IL-13-142 library) (Fab, V domains shown, Fab on phage pIX) VH: QVTLKESGPVLVKPTETLTLTCTVSGFSLSTYGMGVGWIRQPPGKALEWLAHIWWDDVKRYNPALKSRLTISKDTSKSQVVLTMTNMDPVDTATYYCARMGSDYDVWFDYWGQGTLVTVSS VL: DIQMTQSPSTLSASVGDRVTITCRASKSISKYLAWYQQKPGKAPKLLIYSGSTLQSGVPSRFSGSGSGTEFTLTISSLQPDDFATYYCQQPLDAPYTFGGGTKVEIK	154%
Phage # 01 Fab (IL-13-142 library) (Fab, V domains shown, Fab on phage pIX) VH: QVTLKESGPVLVKPTETLTLTCTVSGFSLSTYGMGVGWIRQPPGKALEWLAHIWWDDVKRYNPALKSRLTISKDTSKSQVVLTMTNMDPVDTATYYCARMGSDYDVWFDYWGQGTLVTVSS VL: DIQMTQSPSTLSASVGDRVTITCRASKSISKYLAWYQQKPGKAPKLLIYSGSTLQSGVPSRFSGSGSGTEFTLTISSLQPDDFATYYCQQHWWGPYTFGGGTKVEIK	222%
Phage # 04 Fab (IL-13-142 library) (Fab, V domains shown, Fab on phage pIX) VH: QVTLKESGPVLVKPTETLTLTCTVSGFSLSTYGMGVGWIRQPPGKALEWLAHIWWDDVKRYNPALKSRLTISKDTSKSQVVLTMTNMDPVDTATYYCARMGSDYDVWFDYWGQGTLVTVSS VL: DIQMTQSPSTLSASVGDRVTITCRASKSISKYLAWYQQKPGKAPKLLIYSGSTLQSGVPSRFSGSGSGTEFTLTISSLQPDDFATYYCQQQDLGPYTFGGGTKVEIK	127%
Phage # 29 Fab (IL-13-142 library) (Fab, V domains shown, Fab on phage pIX) VH: QVTLKESGPVLVKPTETLTLTCTVSGFSLSTYGMGVGWIRQPPGKALEWLAHIWWDDVKRYNPALKSRLTISKDTSKSQVVLTMTNMDPVDTATYYCARMGSDYDVWFDYWGQGTLVTVSS VL: DIQMTQSPSTLSASVGDRVTITCRASKSISKYLAWYQQKPGKAPKLLIYSGSTLQSGVPSRFSGSGSGTEFTLTISSLQPDDFATYYCQQHWMAPYTFGGGTKVEIK	182%
Phage # 22 Fab (IL-13-142 library) (Fab, V domains shown, Fab on phage pIX) VH: QVTLKESGPVLVKPTETLTLTCTVSGFSLSTYGMGVGWIRQPPGKALEWLAHIWWDDVKRYNPALKSRLTISKDTSKSQVVLTMTNMDPVDTATYYCARMGSDYDVWFDYWGQGTLVTVSS VL: DIQMTQSPSTLSASVGDRVTITCRASKSISKYLAWYQQKPGKAPKLLIYSGSTLQSGVPSRFSGSGSGTEFTLTISSLQPDDFATYYCQQHDPGPYTFGGGTKVEIK	313%
Phage # 18 Fab (IL-13-142 library) (Fab, V domains shown, Fab on phage pIX) VH: QVTLKESGPVLVKPTETLTLTCTVSGFSLSTYGMGVGWIRQPPGKALEWLAHIWWDDVKRYNPALKSRLTISKDTSKSQVVLTMTNMDPVDTATYYCARMGSDYDVWFDYWGQGTLVTVSS VL: DIQMTQSPSTLSASVGDRVTITCRASKSISKYLAWYQQKPGKAPKLLIYSGSTLQSGVPSRFSGSGSGTEFTLTISSLQPDDFATYYCQQWDGGPYTFGGGTKVEIK	231%
Phage # 09 Fab (IL-13-142 library) (Fab, V domains shown, Fab on phage pIX) VH: QVTLKESGPVLVKPTETLTLTCTVSGFSLSTYGMGVGWIRQPPGKALEWLAHIWWDDVKRYNPALKSRLTISKDTSKSQVVLTMTNMDPVDTATYYCARMGSDYDVWFDYWGQGTLVTVSS VL: DIQMTQSPSTLSASVGDRVTITCRASKSISKYLAWYQQKPGKAPKLLIYSGSTLQSGVPSRFSGSGSGTEFTLTISSLQPDDFATYYCQQHLDVPYTFGGGTKVEIK	171%
Phage # 11 Fab (IL-13-142 library) (Fab, V domains shown, Fab on phage pIX) VH: QVTLKESGPVLVKPTETLTLTCTVSGFSLSTYGMGVGWIRQPPGKALEWLAHIWWDDVKRYNPALKSRLTISKDTSKSQVVLTMTNMDPVDTATYYCARMGSDYDVWFDYWGQGTLVTVSS VL: DIQMTQSPSTLSASVGDRVTITCRASKSISKYLAWYQQKPGKAPKLLIYSGSTLQSGVPSRFSGSGSGTEFTLTISSLQPDDFATYYCQQQDVGPYTFGGGTKVEIK	229%
Phage # 16 Fab (IL-13-142 library) (Fab, V domains shown, Fab on phage pIX) VH: QVTLKESGPVLVKPTETLTLTCTVSGFSLSTYGMGVGWIRQPPGKALEWLAHIWWDDVKRYNPALKSRLTISKDTSKSQVVLTMTNMDPVDTATYYCARMGSDYDVWFDYWGQGTLVTVSS VL: DIQMTQSPSTLSASVGDRVTITCRASKSISKYLAWYQQKPGKAPKLLIYSGSTLQSGVPSRFSGSGSGTEFTLTISSLQPDDFATYYCQQHVGGPYTFGGGTKVEIK	206%
Phage # 05 Fab (IL-13-142 library) (Fab, V domains shown, Fab on phage pIX) VH: QVTLKESGPVLVKPTETLTLTCTVSGFSLSTYGMGVGWIRQPPGKALEWLAHIWWDDVKRYNPALKSRLTISKDTSKSQVVLTMTNMDPVDTATYYCARMGSDYDVWFDYWGQGTLVTVSS VL: DIQMTQSPSTLSASVGDRVTITCRASKSISKYLAWYQQKPGKAPKLLIYSGSTLQSGVPSRFSGSGSGTEFTLTISSLQPDDFATYYCQQHVSGPYTFGGGTKVEIK	320%
Phage # 06 Fab (IL-13-142 library) (Fab, V domains shown, Fab on phage pIX) VH: QVTLKESGPVLVKPTETLTLTCTVSGFSLSTYGMGVGWIRQPPGKALEWLAHIWWDDVKRYNPALKSRLTISKDTSKSQVVLTMTNMDPVDTATYYCARMGSDYDVWFDYWGQGTLVTVSS VL: DIQMTQSPSTLSASVGDRVTITCRASKSISKYLAWYQQKPGKAPKLLIYSGSTLQSGVPSRFSGSGSGTEFTLTISSLQPDDFATYYCQQPLTHPYTFGGGTKVEIK	232%
Phage # 21 Fab (IL-13-142 library) (Fab, V domains shown, Fab on phage pIX) VH: QVTLKESGPVLVKPTETLTLTCTVSGFSLSTYGMGVGWIRQPPGKALEWLAHIWWDDVKRYNPALKSRLTISKDTSKSQVVLTMTNMDPVDTATYYCARMGSDYDVWFDYWGQGTLVTVSS VL: DIQMTQSPSTLSASVGDRVTITCRASKSISKYLAWYQQKPGKAPKLLIYSGSTLQSGVPSRFSGSGSGTEFTLTISSLQPDDFATYYCQQWSDGPYTFGGGTKVEIK	276%
Phage # 10 Fab (IL-13-142 library) (Fab, V domains shown, Fab on phage pIX) VH: QVTLKESGPVLVKPTETLTLTCTVSGFSLSTYGMGVGWIRQPPGKALEWLAHIWWDDVKRYNPALKSRLTISKDTSKSQVVLTMTNMDPVDTATYYCARMGSDYDVWFDYWGQGTLVTVSS VL: DIQMTQSPSTLSASVGDRVTITCRASKSISKYLAWYQQKPGKAPKLLIYSGSTLQSGVPSRFSGSGSGTEFTLTISSLQPDDFATYYCQQHLWGPYTFGGGTKVEIK	318%
